Measurements reported in patent publication US20260232732A1 (FUNDACI INSTITUT DE RECERCA CONTRA LA LEUC MIA JOSEP …, published 2026).
Blank lines part the entries; values can stand above or below the binder they belong to.

How the values were obtained:
Test in all cases: ELISA naked peptide; scFv 1 ug/mL; repI
naked peptide TSPIPNMADD = target: T1, naked peptide TSPIPNMADD (human)
T1 peptide: TSPIPNMADD
Description: (§1) The peptides were synthesized naked or with a N-terminal Biotin modification with a purity of >98%. All four scFvs were verified by ELISA that can be detected with anti-His antibodies. ELISA was performed for scFv-peptide binding validation. Briefly, naked peptides were coated (50 μg/mL) in 0.58M carbonate-bicarbonate buffer pH9.5, 100 μL/well, 4° C. O/N. Then after blocking (3% BSA-PBS, 300 μL/well 37° C. 1.5 h) and washing (PBS+Tween-20 0.05% v/v (0.05% PBST), wells were incubated with each purified scFv antibody at concentration of 1 μg/mL in PBS at 37° C. 1 h. After washing (0.05% PBST), wells were incubated with secondary antibodies (goat anti-His IgG-HRP) in PBS, 37° C., 30 min. After washing, and incubation with TMB substrate, reactions were stopped with 2M HCl and reading was quantified at OD450.
(§2) Then a library of overlapping peptides were designed and constructed separately to produce 16 different peptides, covering full antigen sequence of total 48 aa. Peptide size was 10aa, with 7aa overlapping and ELISA screening of scFv against each peptide was performed in duplicate. Screening was performed using naked peptides in a standard plate or biotinylated peptides using avidin-plates.

naked peptide SESTSSMEDY = target: T2, naked peptide SESTSSMEDY (human)
T2 peptide: SESTSSMEDY
Description: as §1, §2

naked peptide DYGSESTSSM = target: T3, naked peptide DYGSESTSSM (human)
T3 peptide: DYGSESTSSM
Description: as §1, §2

naked peptide YCEKNNVRQF = target: T4, naked peptide YCEKNNVRQF (human)
T4 peptide: YCEKNNVRQF
Description: as §1, §2

naked peptide TSSMEDYVNF = target: T5, naked peptide TSSMEDYVNF (human)
T5 peptide: TSSMEDYVNF
Description: as §1, §2

naked peptide YVNFNFTDFY = target: T6, naked peptide YVNFNFTDFY (human)
T6 peptide: YVNFNFTDFY
Description: as §1, §2

naked peptide MADDYGSEST = target: T7, naked peptide MADDYGSEST (human)
T7 peptide: MADDYGSEST
Description: as §1, §2

naked peptide SSMEDYVNFN = target: T8, naked peptide SSMEDYVNFN (human)
T8 peptide: SSMEDYVNFN
Description: as §1, §2

naked peptide MTPTDFTSPI = target: T9, naked peptide MTPTDFTSPI (human)
T9 peptide: MTPTDFTSPI
Description: as §1, §2

naked peptide SMEDYVNFNF = target: T10, naked peptide SMEDYVNFNF (human)
T10 peptide: SMEDYVNFNF
Description: as §1, §2

naked peptide MEDYVNFNFT = target: T11, naked peptide MEDYVNFNFT (human)
T11 peptide: MEDYVNFNFT
Description: as §1, §2

naked peptide FNFTDFYCEK = target: T12, naked peptide FNFTDFYCEK (human)
T12 peptide: FNFTDFYCEK
Description: as §1, §2

naked peptide TDFTSPIPNM = target: T13, naked peptide TDFTSPIPNM (human)
T13 peptide: TDFTSPIPNM
Description: as §1, §2

naked peptide KNNVRQFAS = target: T14, naked peptide KNNVRQFAS (human)
T14 peptide: KNNVRQFAS
Description: as §1, §2

naked peptide TDFYCEKNNV = target: T15, naked peptide TDFYCEKNNV (human)
T15 peptide: TDFYCEKNNV
Description: as §1, §2

OD450 (naked peptide TSPIPNMADD): 0.02 OD
OD450 (naked peptide SESTSSMEDY): 0.03 OD
OD450 (naked peptide DYGSESTSSM): 0.02 OD
OD450 (naked peptide YCEKNNVRQF): 0.05 OD
OD450 (naked peptide TSSMEDYVNF): 0.03 OD
OD450 (naked peptide YVNFNFTDFY): 0.02 OD
OD450 (naked peptide MADDYGSEST): 0.02 OD
OD450 (naked peptide SSMEDYVNFN): 0.1 OD
OD450 (naked peptide MTPTDFTSPI): 0.03 OD
OD450 (naked peptide SMEDYVNFNF): 0.03 OD
OD450 (naked peptide MEDYVNFNFT): 0.04 OD
OD450 (naked peptide FNFTDFYCEK): 0.03 OD
OD450 (naked peptide TDFTSPIPNM): 0.04 OD
OD450 (naked peptide KNNVRQFAS): 0.04 OD
OD450 (naked peptide TDFYCEKNNV): 0.03 OD
B1: Comparative antibody 2 (Comp-2) scFv, 243LO326 (VH SEQ ID NO: 51 and VL SEQ ID NO: 52 of WO 2022/195028 A2), His-tagged (scFv)
scFv: QVQLVQSGAEVKKPGASVKVSCKASGYTFTSYWMHWVRQAPGQGLEWIGVIYPGNSDTRYNQKFKGRVTITRDTSASTAYMELSSLRSEDTAVYYCTRDYYSNYVYYYAMDYWGQGTTVTVSSGGGGSGGGGSGGGGSGGGGSDIVMTQTPLSLPVTPGEPASISCRSSQSLVHPNRNTYLHWYLQKPGQSPQLLIYKVSNRFSGVPDRFSGSGSGTDFTLKISRVEAEDVGVYYCSQSTHVPWTFGQGTKLEIKHHHHHH

OD450 (naked peptide TSPIPNMADD): 0.05 OD
OD450 (naked peptide SESTSSMEDY): 0.03 OD
OD450 (naked peptide DYGSESTSSM): 0.02 OD
OD450 (naked peptide YCEKNNVRQF): 0.02 OD
OD450 (naked peptide TSSMEDYVNF): 0.03 OD
OD450 (naked peptide YVNFNFTDFY): 0.05 OD
OD450 (naked peptide MADDYGSEST): 0.02 OD
OD450 (naked peptide SSMEDYVNFN): 0.07 OD
OD450 (naked peptide MTPTDFTSPI): 0.05 OD
OD450 (naked peptide SMEDYVNFNF): 0.02 OD
OD450 (naked peptide MEDYVNFNFT): 0.05 OD
OD450 (naked peptide FNFTDFYCEK): 0.02 OD
OD450 (naked peptide TDFTSPIPNM): 0.03 OD
OD450 (naked peptide KNNVRQFAS): 0.02 OD
OD450 (naked peptide TDFYCEKNNV): 0.03 OD
B2: Comparative antibody 1 (Comp-1) scFv, SEQ ID NO: 10 from WO2023/037125 A1, His-tagged (scFv)
scFv: QVQLKESGPGLVQPSQTLSLTCTVSGFSVASYDMHWVRLPPGKGLEWMGIIWANGNTHYNSGLKSRLSISRDTSKSQVFLKMNSLQTEDTAIYFCTRGGFAYWGQGTLVTVSSGGGGSGGGGSGGGGSGGGGSDVVMTQTPVSLSVSLGGQVSISCRSSQSLVHNNGNTYLSWYLQKPGQSPQLLIYKVSNRFSGVSDRFSGSGSGTDFTLKISRVEPDDLGVYYCGQGTQYPTFGGGTKLELKHHHHHH
